One assay concerns the target T1, human FSH (human, UniProt P01215 25-116; P01225 19-129).
T1 construct: heterodimer, purchased from the National Hormone and Pituitary Program; also called follicle stimulating hormone
As to the kind of experiment: 125I-FSH competition binding on HEK293 cells, Scatchard. Here is the method:
The Kd values were determined by Scatchard plots. Truncated exodomain was solubilized in Nonidet P-40 and assayed for hormone binding as described previously. For intracellular cAMP assay, cells were washed twice with Dulbecco's modified Eagle's media and incubated in the media containing isobutylmethylxanthine (0.1 mg/ml) for 15 minutes. […] After removing the media, the cells were rinsed once with fresh media without isobutylmethylxanthine, lysed in 70% ethanol, freeze-thawed in liquid nitrogen, and scraped. After pelleting cell debris at 16,000×g for 10 minutes at 4° C., the supernatant was collected, dried under vacuum and resuspended in 10 μl of the cAMP assay buffer, which was provided by the manufacturer. cAMP concentrations were determined with an ¹²⁵I-cAMP assay kit (Amersham) following the manufacturer's instruction and validated for use in our laboratory. Exoloop 3 of FSHR was modeled based on the crystal structure of rhodopsin as a template.

The target of assay [1] is T2, human LH receptor, wild type (human, UniProt P22888 27-699).
T2 construct: whole, on cells; stably expressed in HEK 293 cells; This holds for all LHR mutants and LHR peptides below; also called LH/CG receptor
T2 sequence (P22888 27-699): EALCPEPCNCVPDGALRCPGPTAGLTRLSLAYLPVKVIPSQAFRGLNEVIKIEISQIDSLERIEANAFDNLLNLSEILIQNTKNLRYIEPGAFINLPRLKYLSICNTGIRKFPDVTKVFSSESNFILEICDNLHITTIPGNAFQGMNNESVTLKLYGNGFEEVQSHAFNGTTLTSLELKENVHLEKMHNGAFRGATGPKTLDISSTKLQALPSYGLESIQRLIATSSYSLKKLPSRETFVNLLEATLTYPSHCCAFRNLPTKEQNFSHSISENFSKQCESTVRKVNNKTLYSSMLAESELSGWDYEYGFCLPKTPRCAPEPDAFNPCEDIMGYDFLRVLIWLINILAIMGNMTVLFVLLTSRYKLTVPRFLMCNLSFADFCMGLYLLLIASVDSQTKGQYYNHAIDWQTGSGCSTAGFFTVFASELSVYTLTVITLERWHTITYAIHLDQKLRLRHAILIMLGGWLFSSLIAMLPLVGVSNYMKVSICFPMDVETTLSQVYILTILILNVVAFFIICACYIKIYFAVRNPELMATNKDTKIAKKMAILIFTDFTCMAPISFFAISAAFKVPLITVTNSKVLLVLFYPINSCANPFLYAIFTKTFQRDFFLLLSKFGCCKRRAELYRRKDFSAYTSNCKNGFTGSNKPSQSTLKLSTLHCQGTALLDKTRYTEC
The experiment in a line: competition of 125I-hCG binding to cells expressing LHR. Here is the method:
The Kd values were determined by Scatchard plots. For intracellular cAMP assay, cells were washed twice with Dulbecco's modified Eagle's media and incubated in the media containing isobutylmethylxanthine (0.1 mg/ml) for 15 minutes. Increasing concentrations of hormone were then added and the incubation was continued for 45 minutes at 37° C. After removing the media, the cells were rinsed once with fresh media without isobutylmethylxanthine, lysed in 70% ethanol, freeze-thawed in liquid nitrogen, and scraped.

As a reminder, the Kd is the constant that tells how readily two partners part at equilibrium. Read a low Kd as higher affinity.

Changes are numbered by the printed parent chain. Names and notes keep the numbering of the source.

B1: FSHR^K590F (receptor)
chain: CHHRICHCSNRVFLCQESKVTEIPSDLPRNAIELRFVLTKLRVIQKGAFSGFGDLEKIEISQNDVLEVIEADVFSNLPKLHEIRIEKANNLLYINPEAFQNLPNLQYLLISNTGIKHLPDVHKIHSLQKVLLDIQDNINIHTIERNSFVGLSFESVILWLNKNGIQEIHNCAFNGTQLDELNLSDNNNLEELPNDVFHGASGPVILDISRTRIHSLPSYGLENLKKLRARSTYNLKKLPTLEKLVALMEASLTYPSHCCAFANWRRQISELHPICNKSILRQEVDYMTQARGQRSSLAEDNESSYSRGFDMTYTEFDYDLCNEVVDVTCSPKPDAFNPCEDIMGYNILRVLIWFISILAITGNIIVLVILTTSQYKLTVPRFLMCNLAFADLCIGIYLLLIASVDIHTKSQYHNYAIDWQTGAGCDAAGFFTVFASELSVYTLTAITLERWHTITHAMQLDCKVQLRHAASVMVMGWIFAFAAALFPIFGISSYMKVSICLPMDIDSPLSQLYVMSLLVLNVLAFVVICGCYIHIYLTVRNPNIVSSSSDTRIAKRMAMLIFTDFLCMAPISFFAISASLKVPLITVSKAFILLVLFHPINSCANPFLYAIFTKNFRRDFFILLSKCGCYEMQAQIYRTETSSTVHNTHPRNGHCSSAPRVTSGSTYILVPLSHLAQN
In the assay with human FSH, B1 came in with a Kd of 50 nM.

B2: FSHR^K590L (receptor)
chain: B1 chain with F591L
B2 returned a Kd with human FSH of 7.2 nM.

B3: hCG (ligand)
chain 1: not shown
chain 2: SKEPLRPRCRPINATLAVEKEGCPVCITVNTTICAGYCPTMTRVLQGVLPALPQVVCNYRDVRFESIRLPGCPRGVNPVVSYAVALSCQCALCRRSTTDCGGPKDHPLTCDDPRFQDSSSSKAPPPSLPSPSRLPGPSDTPILPQ
notes: purchased from the National Hormone and Pituitary Program; also called human chorionic gonadotropin
In the case of B3, the “potency relative to LHR^exo3 in inhibiting ^125I-hCG binding to LHR” value in assay [1] is more than 10000 fold.

Source of the values: patent US20050142135A1 (UNIVERSITY OF KENTUCKY RESEARCH FOUNDATION, published 2005).
